For this data set, the target named is Cys61 (UniProt position 61, AGYSACFIGAL). The data set can be described thus: chemical modification. Conditions: room temperature; Reduced (dithiol) protein after DTT treatment and desalting; no ligand.

For orientation: pKa means the negative logarithm of the acid dissociation constant. Turning to “Organic hydroperoxide resistance protein (Ohr, XfOhr) (Xylella fastidiosa)”, the pKa is given as 5.92 ± 0.11.

The values above are taken from article PMC5962072, “Structural insights on the efficient catalysis of hydroperoxide reduction by Ohr: Crystallographic and molecular dynamics approaches” (PLoS ONE, 2018).
